# Data from patent US20150111829A1 (PHASEBIO PHARMACEUTICALS, published 2015).
# T1: human Vasoactive Intestinal Peptide Receptor 1 (VPAC1) (human, UniProt P32241 31-457)
# T1 sequence (looked up): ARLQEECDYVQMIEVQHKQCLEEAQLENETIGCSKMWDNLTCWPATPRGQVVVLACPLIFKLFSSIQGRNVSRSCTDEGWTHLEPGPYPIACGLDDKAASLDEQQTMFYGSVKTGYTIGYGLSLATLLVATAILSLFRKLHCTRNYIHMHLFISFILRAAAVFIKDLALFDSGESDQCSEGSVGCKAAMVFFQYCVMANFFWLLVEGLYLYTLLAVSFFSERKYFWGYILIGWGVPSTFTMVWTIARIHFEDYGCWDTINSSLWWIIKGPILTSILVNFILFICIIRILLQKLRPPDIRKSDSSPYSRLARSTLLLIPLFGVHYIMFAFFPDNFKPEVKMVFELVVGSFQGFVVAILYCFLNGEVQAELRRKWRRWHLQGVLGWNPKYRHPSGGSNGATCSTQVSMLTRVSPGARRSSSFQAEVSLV
# T2: human Vasoactive Intestinal Peptide Receptor 2 (VPAC2) (human) (UniProt P41587)
# T2 sequence (looked up): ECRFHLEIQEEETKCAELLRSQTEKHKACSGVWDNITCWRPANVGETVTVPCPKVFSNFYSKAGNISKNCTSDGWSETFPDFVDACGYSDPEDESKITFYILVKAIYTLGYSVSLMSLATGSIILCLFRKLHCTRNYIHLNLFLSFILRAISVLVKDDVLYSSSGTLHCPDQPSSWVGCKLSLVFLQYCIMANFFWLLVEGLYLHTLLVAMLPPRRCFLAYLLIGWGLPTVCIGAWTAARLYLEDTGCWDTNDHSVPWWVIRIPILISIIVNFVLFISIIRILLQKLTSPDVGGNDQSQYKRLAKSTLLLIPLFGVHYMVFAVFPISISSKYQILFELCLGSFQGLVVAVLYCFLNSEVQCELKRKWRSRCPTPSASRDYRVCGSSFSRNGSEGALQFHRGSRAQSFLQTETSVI
# T3: human Vasoactive Intestinal Peptide Receptor 1 (VPAC1) (human) (UniProt P32241)
# T3 sequence (looked up): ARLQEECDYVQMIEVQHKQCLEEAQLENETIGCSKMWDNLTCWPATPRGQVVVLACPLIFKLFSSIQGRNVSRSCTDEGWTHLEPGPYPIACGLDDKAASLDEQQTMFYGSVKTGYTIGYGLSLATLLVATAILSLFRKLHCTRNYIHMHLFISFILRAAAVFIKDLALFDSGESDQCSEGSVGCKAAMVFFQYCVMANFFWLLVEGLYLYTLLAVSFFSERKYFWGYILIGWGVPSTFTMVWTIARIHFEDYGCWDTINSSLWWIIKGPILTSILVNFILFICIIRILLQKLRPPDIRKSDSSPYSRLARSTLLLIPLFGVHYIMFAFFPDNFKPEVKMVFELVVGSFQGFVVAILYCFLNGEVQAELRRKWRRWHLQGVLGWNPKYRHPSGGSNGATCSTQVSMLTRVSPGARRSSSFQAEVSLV
# Experiments:
# Assay in all cases: cell-based or functional assay
# [1] = target: T1, human Vasoactive Intestinal Peptide …
# [2] = target: T2, human Vasoactive Intestinal Peptide Receptor 2 (VPAC2) (human)
# [3] = target: T3, human Vasoactive Intestinal Peptide Receptor 1 (VPAC1) (human)
"cAMP assay in CHO cells expressing VPAC1, fold less active than native VIP [1]","cAMP assay in CHO cells expressing VPAC2, fold less active than native VIP (fold less active than native VIP) [2]","cAMP assay in CHO cells expressing VPAC1, fold less active than native VIP (fold less active than native VIP) [3]",Binder
~11 fold less active than native VIP,,,M-VIP-ELP1-120 fusion protein PB1046 (other) MHSDAVFTDNYTRLRKQMAVKKYLNSILNVPGVGVPGVGVPGGGVPGAGVPGVGVPGVGVPGVGVPGGGVPGAGVPGGGVPGVGVPGVGVPGGGVPGAGVPGVGVPGVGVPGVGVPGGGVPGAGVPGGGVPGVGVPGVGVPGGGVPGAGVPGVGVPGVGVPGVGVPGGGVPGAGVPGGGVPGVGVPGVGVPGGGVPGAGVPGVGVPGVGVPGVGVPGGGVPGAGVPGGGVPGVGVPGVGVPGGGVPGAGVPGVGVPGVGVPGVGVPGGGVPGAGVPGGGVPGVGVPGVGVPGGGVPGAGVPGVGVPGVGVPGVGVPGGGVPGAGVPGGGVPGVGVPGVGVPGGGVPGAGVPGVGVPGVGVPGVGVPGGGVPGAGVPGGGVPGVGVPGVGVPGGGVPGAGVPGVGVPGVGVPGVGVPGGGVPGAGVPGGGVPGVGVPGVGVPGGGVPGAGVPGVGVPGVGVPGVGVPGGGVPGAGVPGGGVPGVGVPGVGVPGGGVPGAGVPGVGVPGVGVPGVGVPGGGVPGAGVPGGGVPGVGVPGVGVPGGGVPGAGVPGVGVPGVGVPGVGVPGGGVPGAGVPGGGVPGVGVPGVGVPGGGVPGAGVPGVGVPGVGVPGVGVPGGGVPGAGVPGGGVPGWP
,1.5,1.4,"HSDAVFTDNYTRLRKQMAVKKYLNSILN (peptide, part only; not given: ELP1-120 polymer, part only) [VIP-ELP1-120 fusion peptide PB1120]"
